Measured values published in publication PMC3245936 (Nucleic Acids Research, 2011).

B1: Tpz1-1–234 (domain or fragment, S. pombe, UniProt O14246 1-234, looked up)
chain: MSNCLKHPWLENGLLNLIKNADVLPIRVFKCQPLQIFEYIRYEHPIRCKLSDTEFYIEAEFSSQSISDLNNFTEKRITSLRGGIVTLGNFLIHLIPSQSGIIPWIQVESFNFQGCEGAVFGNPKAITTSALFNALLQSPYLAALANEFNRSIKEGSSYQEASLSQQEKPNDNTSNSRDIKNNIQFHWKNMTSLSIEECIIPKGQQLILEKESEENTTHGIYLEERKMAQGLHNS

What was measured:
[1] = molecular target: T1, full-length SpPot1 (Schizosaccharomyces pombe Pot1) (S. pombe, UniProt O13988 1-555); test: native gel or EMSA
T1 sequence (looked up): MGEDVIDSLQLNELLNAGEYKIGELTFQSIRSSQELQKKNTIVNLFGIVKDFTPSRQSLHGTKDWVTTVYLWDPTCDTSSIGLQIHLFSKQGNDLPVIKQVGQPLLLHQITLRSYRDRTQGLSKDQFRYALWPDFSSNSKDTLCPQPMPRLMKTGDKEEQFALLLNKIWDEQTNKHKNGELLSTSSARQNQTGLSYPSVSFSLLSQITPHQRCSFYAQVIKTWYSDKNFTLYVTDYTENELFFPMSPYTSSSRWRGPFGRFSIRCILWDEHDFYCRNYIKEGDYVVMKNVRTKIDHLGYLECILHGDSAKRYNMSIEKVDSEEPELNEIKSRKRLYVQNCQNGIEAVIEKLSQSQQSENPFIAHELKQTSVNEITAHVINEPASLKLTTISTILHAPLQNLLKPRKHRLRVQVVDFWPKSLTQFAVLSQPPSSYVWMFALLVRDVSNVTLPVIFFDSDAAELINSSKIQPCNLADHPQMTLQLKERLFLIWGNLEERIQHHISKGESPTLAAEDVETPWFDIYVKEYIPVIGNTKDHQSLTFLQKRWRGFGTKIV

[2] = molecular target: T2, SpPot1;Tpz1-1-234 (Schizosaccharomyces …, UniProt O13988;O14246 1-555;1-234, |); test: filter binding
T2 sequence 1: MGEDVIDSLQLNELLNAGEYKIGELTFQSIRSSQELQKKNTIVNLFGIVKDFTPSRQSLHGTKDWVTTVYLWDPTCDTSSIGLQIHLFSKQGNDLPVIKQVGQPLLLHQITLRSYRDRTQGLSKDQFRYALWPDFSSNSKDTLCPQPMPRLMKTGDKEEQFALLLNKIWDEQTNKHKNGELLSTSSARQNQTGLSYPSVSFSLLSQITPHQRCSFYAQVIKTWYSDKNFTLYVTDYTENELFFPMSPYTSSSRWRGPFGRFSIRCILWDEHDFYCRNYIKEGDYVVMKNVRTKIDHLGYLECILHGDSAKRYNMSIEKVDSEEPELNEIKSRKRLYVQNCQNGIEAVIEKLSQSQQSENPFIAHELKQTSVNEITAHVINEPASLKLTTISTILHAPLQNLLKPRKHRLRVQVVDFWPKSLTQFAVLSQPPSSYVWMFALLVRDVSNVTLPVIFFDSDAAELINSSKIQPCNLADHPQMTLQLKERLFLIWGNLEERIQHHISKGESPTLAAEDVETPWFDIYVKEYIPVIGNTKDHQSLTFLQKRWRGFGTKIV
T2 sequence 2: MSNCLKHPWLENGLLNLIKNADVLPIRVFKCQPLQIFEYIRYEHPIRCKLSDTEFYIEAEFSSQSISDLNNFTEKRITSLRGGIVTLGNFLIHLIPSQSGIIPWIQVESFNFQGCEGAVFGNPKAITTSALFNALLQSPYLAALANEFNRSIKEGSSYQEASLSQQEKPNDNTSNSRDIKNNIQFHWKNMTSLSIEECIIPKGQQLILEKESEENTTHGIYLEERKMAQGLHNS

[3] = molecular target: T3, SpPot1 (Schizosaccharomyces pombe, UniProt O13988 1-555); test: filter binding
T3 sequence: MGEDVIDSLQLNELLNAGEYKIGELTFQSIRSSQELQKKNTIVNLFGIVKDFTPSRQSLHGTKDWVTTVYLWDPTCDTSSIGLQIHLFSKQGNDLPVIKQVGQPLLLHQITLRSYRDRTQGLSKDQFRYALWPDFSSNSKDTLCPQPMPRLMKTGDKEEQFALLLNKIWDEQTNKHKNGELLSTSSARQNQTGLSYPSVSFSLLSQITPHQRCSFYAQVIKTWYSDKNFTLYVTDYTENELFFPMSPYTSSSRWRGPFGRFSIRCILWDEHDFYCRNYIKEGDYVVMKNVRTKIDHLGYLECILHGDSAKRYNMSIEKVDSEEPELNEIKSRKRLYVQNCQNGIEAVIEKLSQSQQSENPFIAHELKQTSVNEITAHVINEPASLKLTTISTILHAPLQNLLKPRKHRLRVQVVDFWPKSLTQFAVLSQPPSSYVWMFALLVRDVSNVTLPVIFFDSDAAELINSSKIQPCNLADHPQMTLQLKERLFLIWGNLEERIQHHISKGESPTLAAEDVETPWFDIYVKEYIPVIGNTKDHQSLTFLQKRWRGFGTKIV

[4] = molecular target: T3, SpPot1; test: size-exclusion chromatography

Row | Binder | binding result [1] | Kd [2] [nM] | Kd [3] [nM] | binding result [4]
1 | B1 | binds |  |  | 
2 | GGTTACGGTTAC (ssDNA) [d12] |  | 0.22 ± 0.03 | 5 ± 1.3 | 
3 | GGTTACGGTTAC (mixed, ribonucleotides at 1 and 7) [r1r7] |  | 0.31 ± 0.02 | 5.1 ± 0.01 | 
4 | GGTTACGGTTAC (mixed, ribonucleotides at 2 and 8) [r2r8] |  | 0.19 ± 0.03 | 3.2 ± 0.5 | 
5 | GGTTACGGTTAC (mixed, ribonucleotides at 5 and 11) [r5r11] |  | 0.31 ± 0.05 | 3.34 ± 0.4 | 
6 | GGTTACGGTTAC (mixed, ribonucleotides at 6 and 12) [r6r12] |  | 0.3 ± 0.05 | 3.2 ± 0.6 | 
7 | GGUUACGGUUAC (mixed, ribonucleotides (rU) at 3, 4, 9 and 10) [r3r4r9r10] |  |  | ~238 | 
8 | GGTTACAGGTTAC (ssDNA) [d12dA] |  |  | 4.3 ± 0.6 | 
9 | GGTTACAGGGGTTAC (ssDNA) [d12dAdGdG] |  |  | 4.9 ± 0.7 | 
10 | GGTTACAGGTTAC (mixed, ribonucleotide (rA) at 7) [d12rA] |  |  | 3.4 ± 0.3 | 
11 | GGTTACAGGGGTTAC (mixed, ribonucleotides (rArGrG) at 7-9) [d12rArGrG] |  |  | 4 ± 0.5 | 
12 | GGUUACGGUUAC (ssRNA) [r12] |  | ~1000 | ~324 | 
13 | GGTTAC (ssDNA) |  |  |  | binds
